{"source": "paper PMC4169731", "about": "(Peptides, 2014)", "type_in_all_cases": "in vivo, mouse", "key": {"AA amyloid deposits [1]": {"tested_on": "AA amyloid deposits", "assay": "Longitudinal SPECT/CT imaging of ^125I-p5 in AA mice"}, "[2]": {"assay": "Dynamic PET/CT imaging of ^124I-p5, time activity curves, healthy", "settings": "WT mice, ^124I-p5 IV"}, "[3]": {"tested_on": "amyloid-laden (AA) H2-L^d-HuIL-6 Tg BALB/c mice", "assay": "Dynamic PET/CT imaging of ^124I-p5, time activity curves, amyloid-laden"}, "AA amyloid deposits [4]": {"tested_on": "AA amyloid deposits", "assay": "Tissue biodistribution of ^124I radioactivity", "settings": "120 min pi of ^124I-p5; n = 3; more in AA mice"}, "[5]": {"assay": "Dynamic PET/CT imaging of ^124I-p5 in mice", "settings": "^124I-p5 IV, dynamic PET"}, "AA amyloid deposits [6]": {"tested_on": "AA amyloid deposits", "settings": "^125I-p5; 72 h pi; AA mice; microautoradiography"}, "[7]": {"settings": "dynamic PET 2 h, double exponential fit"}, "[8]": {"settings": "dynamic PET 2 h, single exponential fit"}, "[9]": {"settings": "AA mice, ^124I-p5 IV, dynamic PET 2 h, double exponential fit"}, "[10]": {"settings": "AA mice, ^124I-p5 IV, dynamic PET 2 h, single exponential fit"}, "[11]": {"settings": "higher in AA mice, biexponential decay, dynamic PET"}}, "note": "Several values for one entry are separate records, joined by “and”; a condition that tells them apart may be missing. Identical values can stand only once. Where a SMILES comes first, the peptide text is derived from it. The star is where a group is joined. 124I = [124I]*; 125I = [125I]*", "data": [{"compound": "C[C@H](NC(=O)[C@H](CCC(N)=O)NC(=O)[C@H](C)NC(=O)[C@H](CCCCN)NC(=O)[C@H](CCC(N)=O)NC(=O)[C@H](C)NC(=O)[C@H](CCCCN)NC(=O)[C@H](CCC(N)=O)NC(=O)[C@H](C)NC(=O)[C@H](CCC(N)=O)NC(=O)[C@H](CCCCN)NC(=O)[C@H](C)NC(=O)[C@H](CCC(N)=O)NC(=O)[C@H](CCCCN)NC(=O)[C@H](C)NC(=O)[C@H](CCC(N)=O)NC(=O)[C@H](C)NC(=O)[C@H](CCCCN)NC(=O)[C@H](CCC(N)=O)NC(=O)[C@H](C)NC(=O)[C@H](CCCCN)NC(=O)[C@H](CO)NC(=O)[C@H](Cc1ccc(O)cc1)NC(=O)CNC(=O)CNC(=O)CN)C(=O)N[C@@H](CCCCN)C(=O)N[C@@H](CCC(N)=O)C(=O)N[C@@H](C)C(=O)N[C@@H](CCCCN)C(=O)N[C@@H](CCC(N)=O)C(=O)O", "note": "[p5] (H-GGGYSKAQKAQAKQAKQAQKAQKAQAKQAKQ-OH)", "values": [{"measurement": "Time the peptide remains bound to amyloid in vivo", "setting": "AA amyloid deposits [1]; mice", "result": "at least 3 days"}, {"measurement": "Time the peptide remains stably bound to amyloid deposits and radioactive", "setting": "AA amyloid deposits [1]; mice, pi", "result": "at least 72 h"}]}, {"compound": "^124I-p5: peptide p5 radiolabeled with ^124I on Tyr using Iodogen, for PET imaging (H-GGGY(124I)SKAQKAQAKQAKQAQKAQKAQAKQAKQ-OH)", "values": [{"measurement": "Lag time (tlag) before accumulation of radioactivity in stomach", "setting": "[2]; dynamic PET", "result": "~ 8 min"}, {"measurement": "Time of peak activity in the kidneys (tmax)", "setting": "[2]; dynamic PET", "result": "~ 7 min"}, {"measurement": "T1/2 fast, liver", "setting": "[2]; [7]", "result": 0.70, "unit": "min"}, {"measurement": "T1/2 slow, blood", "setting": "[2]; [7]", "result": 37.99, "unit": "min"}, {"measurement": "T1/2 slow, liver", "setting": "[2]; [7]", "result": 20.82, "unit": "min"}, {"measurement": "Kfast, kidney", "setting": "[2]; dynamic PET 2 h, single exponential decay after peak", "result": "0.06 min⁻¹ and 0.06 ± 0.001 min⁻¹"}, {"measurement": "T1/2 fast, kidney", "setting": "[2]; [8]", "result": 10.96, "unit": "min"}, {"measurement": "T1/2 fast, spleen", "setting": "[2]; [8]", "result": 11.19, "unit": "min"}, {"measurement": "T1/2 fast, thyroid", "setting": "[2]; [8]", "result": 20.67, "unit": "min"}, {"measurement": "Lag time (tlag) before accumulation of radioactivity in stomach", "setting": "[3]; AA mice, ^124I-p5 IV, dynamic PET", "result": "~ 8 min"}, {"measurement": "Kslow, liver", "setting": "[3]; AA mice, ^124I-p5 IV, dynamic PET 2 h, double exponential association", "result": "0.17 ± 0.01", "unit": "min⁻¹"}, {"measurement": "Kslow, blood (heart ROI)", "setting": "[3]; [9]", "result": "0.49 ± 0.04", "unit": "min⁻¹"}, {"measurement": "T1/2 fast, blood", "setting": "[3]; [9]", "result": 0.49, "unit": "min"}, {"measurement": "T1/2 fast, liver", "setting": "[3]; [9]", "result": 0.31, "unit": "min"}, {"measurement": "Kfast, spleen", "setting": "[3]; AA mice, ^124I-p5 IV, dynamic PET 2 h, single exponential association", "result": "0.04 ± 0.00", "unit": "min⁻¹"}, {"measurement": "Kfast, kidney", "setting": "[3]; [10]", "result": "0.04 min⁻¹ and 0.04 ± 0.003 min⁻¹"}, {"measurement": "T1/2 fast, kidney", "setting": "[3]; [10]", "result": 16.62, "unit": "min"}, {"measurement": "T1/2 fast, spleen", "setting": "[3]; [10]", "result": 15.62, "unit": "min"}, {"measurement": "Blood pool Kfast (α component), AA mice relative to WT mice", "setting": "[3]; [11]", "result": "> 2", "unit": "fold"}, {"measurement": "Blood pool Kslow (β), AA mice relative to WT mice", "setting": "[3]; [11]", "result": "> 2", "unit": "fold"}, {"measurement": "Radioactivity (%ID/g) in liver, pancreas and spleen, AA mice compared to WT mice", "setting": "AA amyloid deposits [4]", "result": "~ 10 fold"}, {"measurement": "Lag time (tlag) of thyroid radioactivity", "setting": "[5]; WT and AA not distinguished", "result": "~ 8 min"}, {"measurement": "Radioactivity removed from the blood pool", "setting": "[5]; by 5 min pi", "result": "~ 90%"}]}, {"compound": "^125I-p5: peptide p5 radioiodinated with ^125I using chloramine T, for SPECT imaging (H-GGGY(125I)SKAQKAQAKQAKQAQKAQKAQAKQAKQ-OH)", "values": [{"measurement": "Loss of radioactivity from major amyloid organs (liver, spleen and pancreas)", "setting": "AA amyloid deposits [1]; AA mice, ^125I-p5, 72 h pi, SPECT", "result": "essentially no loss of radioactivity"}, {"measurement": "Time of retention in the liver and spleen", "setting": "AA amyloid deposits [1]; AA mice, ~5 μg ^125I-p5 (~150 μCi) IV, SPECT/CT at 2, 24, 48, 72 h pi", "result": "more than 72 h"}, {"measurement": "Reactivity with healthy tissues", "setting": "AA amyloid deposits [6]", "result": "No significant reactivity"}]}]}
